# Data published in the supplement of paper PMC11246515.
# ± gives the standard deviation of the averaged measurements.
# Test: total protein half-life in vivo (active degradation + dilution); higher = more stable protein
# [1] = E. coli NCM3722 delta-clpP delta-lon delta-hslV, growth: N-lim chemostat, doubling time 6 h
# [2] = E. coli NCM3722 delta-clpP, growth: N-lim chemostat, doubling time 6 h
# [3] = E. coli NCM3722 delta-hslV, growth: N-lim chemostat, doubling time 6 h
# [4] = E. coli NCM3722 delta-lon, growth: N-lim chemostat, doubling time 6 h
# [5] = E. coli NCM3722 delta-smpB, growth: N-lim chemostat, doubling time 6 h
# [6] = wild type E. coli NCM3722, growth: C-lim chemostat, doubling time 3 h
# [7] = wild type E. coli NCM3722, growth: C-lim chemostat, doubling time 12 h
# [8] = wild type E. coli NCM3722, growth: N-lim chemostat, doubling time 6 h
# [9] = wild type E. coli NCM3722, growth: N-lim chemostat, doubling time 12 h
# [10] = wild type E. coli NCM3722, growth: P-lim chemostat, doubling time 6 h
# [11] = wild type E. coli NCM3722, growth: C-lim chemostat, doubling time 6 h
# [12] = wild type E. coli NCM3722, growth: P-lim chemostat, doubling time 12 h
Sequence,total protein half-life in vivo [1] [h],total protein half-life in vivo [2] [h],total protein half-life in vivo [3] [h],total protein half-life in vivo [4] [h],total protein half-life in vivo [5] [h],total protein half-life in vivo [6] [h],total protein half-life in vivo [7] [h],total protein half-life in vivo [8] [h],total protein half-life in vivo [9] [h],total protein half-life in vivo [10] [h],total protein half-life in vivo [11] [h],total protein half-life in vivo [12] [h]
MSTIVIFLAALLACSLLAGWLIKVRSRRRQLPWTNAFADAQTRKLTPEERSAVENYLESLTQVLQVPGPTGASAAPISLALNAESNNVMMLTHAITRYGISTDDPNKWRYYLDSVEVHLPPFWEQYINDENTVELIHTDSLPLVISLNGHTLQEYMQETRSYALQPVPSTQASIRGEESEQIELLNIRKETHEEYALSRPRGLREALLIVASFLMFFFCLITPDVFVPWLAGGALLLLGAGLWGLFAPPAKSSLREIHCLRGTPRRWGLFGENDQEQINNISLGIIDLVYPAHWQPYIAQDLGQQTDIDIYLDRHVVRQGRYLSLHDEVKNFPLQHWLRSTIIAAGSLLVLFMLLFWIPLDMPLKFTLSWMKGAQTIEATSVKQLADAGVRVGDTLRISGTGMCNIRTSGTWSAKTNSPFLPFDCSQIIWNDARSLPLPESELVNKATALTEAVNRQLHPKPEDESRVSASLRSAIQKSGMVLLDDFGDIVLKTADLCSAKDDCVRLKNALVNLGNSKDWDALVKRANAGKLDGVNVLLRPVSAESLDNLVATSTAPFITHETARAAQSLNSPAPGGFLIVSDEGSDFVDQPWPSASLYDYPPQEQWNAFQKLAQMLMHTPFNAEGIVTKIFTDANGTQHIGLHPIPDRSGLWRYLSTTLLLLTMLGSAIYNGVQAWRRYQRHRTRMMEIQAYYESCLNPQLITPSESLIE,7.278 ± 0.055,6.37 ± 0.32,6.48 ± 0.55,6.72 ± 0.7,5.73 ± 0.16,3.25 ± 0.17,13.9 ± 1.9,6.06 ± 0.22,11.6 ± 1.6,6.84 ± 0.8,,
MSTQEATLQQPLLQAIDLKKHYPVKKGMFAPERLVKALDGVSFNLERGKTLAVVGESGCGKSTLGRLLTMIEMPTGGELYYQGQDLLKHDPQAQKLRRQKIQIVFQNPYGSLNPRKKVGQILEEPLLINTSLSKEQRREKALSMMAKVGLKTEHYDRYPHMFSGGQRQRIAIARGLMLDPDVVIADEPVSALDVSVRAQVLNLMMDLQQELGLSYVFISHDLSVVEHIADEVMVMYLGRCVEKGTKDQIFNNPRHPYTQALLSATPRLNPDDRRERIKLSGELPSPLNPPPGCAFNARCRRRFGPCTQLQPQLKDYGGQLVACFAVDQDENPQR,6.25 ± 0.25,5.92 ± 0.29,6.41 ± 0.085,6.11 ± 0.94,5.605 ± 0.031,2.88 ± 0.33,11.6 ± 0.25,6.08 ± 0.62,13.1 ± 0.71,6.16 ± 0.27,6.28 ± 0.43,13.1 ± 0.21
MSTRTPSSSSSRLMLTIGLCFLVALMEGLDLQAAGIAAGGIAQAFALDKMQMGWIFSAGILGLLPGALVGGMLADRYGRKRILIGSVALFGLFSLATAIAWDFPSLVFARLMTGVGLGAALPNLIALTSEAAGPRFRGTAVSLMYCGVPIGAALAATLGFAGANLAWQTVFWVGGVVPLILVPLLMRWLPESAVFAGEKQSAPPLRALFAPETATATLLLWLCYFFTLLVVYMLINWLPLLLVEQGFQPSQAAGVMFALQMGAASGTLMLGALMDKLRPVTMSLLIYSGMLASLLALGTVSSFNGMLLAGFVAGLFATGGQSVLYALAPLFYSSQIRATGVGTAVAVGRLGAMSGPLLAGKMLALGTGTVGVMAASAPGILVAGLAVFILMSRRSRIQPCADA,,,,,,,5.24,,,,,
MSTTNHDHHIYVLMGVSGSGKSAVASEVAHQLHAAFLDGDFLHPRRNIEKMASGEPLNDDDRKPWLQALNDAAFAMQRTNKVSLIVCSALKKHYRDLLREGNPNLSFIYLKGDFDVIESRLKARKGHFFKTQMLVTQFETLQEPGADETDVLVVDIDQPLEGVVASTIEVIKKGK,5.07 ± 0.67,4.474 ± 0.042,4.01,,4.121 ± 0.011,3.02 ± 0.08,8.67,3.92 ± 0.44,6.38 ± 0.14,4.1,> 8,9.14 ± 0.42
MSTTWFVGADWLAEHIDDPEIQIIDARMASPGQEDRNVAQEYLNGHIPGAVFFDIEALSDHTSPLPHMLPRPETFAVAMRELGVNQDKHLIVYDEGNLFSAPRAWWMLRTFGVEKVSILGGGLAGWQRDDLLLEEGAVELPEGEFNAAFNPEAVVKVTDVLLASHENTAQIIDARPAARFNAEVDEPRPGLRRGHIPGALNVPWTELVREGELKTTDELDAIFFGRGVSYDKPIIVSCGSGVTAAVVLLALATLDVPNVKLYDGAWSEWGARADLPVEPVK,4.69 ± 0.49,3.98 ± 0.5,4.63 ± 0.66,6.38 ± 2,3.69 ± 0.23,3.13 ± 0.094,9.46 ± 0.71,4.51 ± 0.59,6.87 ± 0.19,5.58 ± 0.12,5.74 ± 0.92,11 ± 0.56
MSVFSLKIDIADNKFFNGETSPLFSQSQAKLARQFHQKIAGYRPTPLCALDDLANLFGVKKILVKDESKRFGLNAFKMLGGAYAIAQLLCEKYHLDIETLSFEHLKNAIGEKMTFATTTDGNHGRGVAWAAQQLGQNAVIYMPKGSAQERVDAILNLGAECIVTDMNYDDTVRLTMQHAQQHGWEVVQDTAWEGYTKIPTWIMQGYATLADEAVEQMREMGVTPTHVLLQAGVGAMAGGVLGYLVDVYSPQNLHSIIVEPDKADCIYRSGVKGDIVNVGGDMATIMAGLACGEPNPLGWEILRNCATQFISCQDSVAALGMRVLGNPYGNDPRIISGESGAVGLGVLAAVHYHPQRQSLMEKLALNKDAVVLVISTEGDTDVKHYREVVWEGKHAVAP,,,,,,,,,,,4.2,
MSVIETATVPLAQQQADALLNVKDLRVTFSTPDGDVTAVNDLNFSLRAGETLGIVGESGSGKSQTAFALMGLLAANGRIGGSATFNGREILNLPEHELNKLRAEQISMIFQDPMTSLNPYMRVGEQLMEVLMLHKNMSKAEAFEESVRMLDAVKMPEARKRMKMYPHEFSGGMRQRVMIAMALLCRPKLLIADEPTTALDVTVQAQIMTLLNELKREFNTAIIMITHDLVVVAGICDKVLVMYAGRTMEYGNARDVFYQPVHPYSIGLLNAVPRLDAEGETMLTIPGNPPNLLRLPKGCPFQPRCPHAMEICSSAPPLEEFTPGRLRACFKPVEELL,5.379 ± 0.026,5.7109 ± 0.0028,5.53 ± 0.098,4.81 ± 0.18,5.34 ± 0.22,2.84 ± 0.31,11.4 ± 1.9,5.29 ± 0.21,11.4 ± 1.2,5.715 ± 0.02,5.49 ± 0.35,11.6 ± 0.23
MSVIKMTDLDLAGKRVFIRADLNVPVKDGKVTSDARIRASLPTIELALKQGAKVMVTSHLGRPTEGEYNEEFSLLPVVNYLKDKLSNPVRLVKDYLDGVDVAEGELVVLENVRFNKGEKKDDETLSKKYAALCDVFVMDAFGTAHRAQASTHGIGKFADVACAGPLLAAELDALGKALKEPARPMVAIVGGSKVSTKLTVLDSLSKIADQLIVGGGIANTFIAAQGHDVGKSLYEADLVDEAKRLLTTCNIPVPSDVRVATEFSETAPATLKSVNDVKADEQILDIGDASAQELAEILKNAKTILWNGPVGVFEFPNFRKGTEIVANAIADSEAFSIAGGGDTLAAIDLFGIADKISYISTGGGAFLEFVEGKVLPAVAMLEERAKK [P0A799],5.45 ± 0.47,5.27 ± 0.49,4.91 ± 0.11,5.68 ± 0.45,4.66 ± 0.14,3.28 ± 0.049,12.8 ± 0.99,4.92 ± 0.11,8.6 ± 0.45,5.69 ± 0.4,6.24 ± 0.46,12 ± 0.29
MSVLQVLHIPDERLRKVAKPVEEVNAEIQRIVDDMFETMYAEEGIGLAATQVDIHQRIIVIDVSENRDERLVLINPELLEKSGETGIEEGCLSIPEQRALVPRAEKVKIRALDRDGKPFELEADGLLAICIQHEMDHLVGKLFMDYLSPLKQQRIRQKVEKLDRLKARA [P0A6K3],5.89 ± 0.28,4.94 ± 1.4,3.19 ± 0.11,3.686 ± 0.032,2.84 ± 0.43,2.6 ± 0.4,6.33 ± 0.35,3.12 ± 0.3,4.58 ± 0.57,4.29,3.936 ± 0.014,8.94 ± 0.6
MSVPLILTILAGAATFIGAFLGVLGQKPSNRLLAFSLGFAAGIMLLISLMEMLPAALAAEGMSPVLGYGMFIFGLLGYFGLDRMLPHAHPQDLMQKSVQPLPKSIKRTAILLTLGISLHNFPEGIATFVTASSNLELGFGIALAVALHNIPEGLAVAGPVYAATGSKRTAILWAGISGLAEILGGVLAWLILGSMISPVVMAAIMAAVAGIMVALSVDELMPLAKEIDPNNNPSYGVLCGMSVMGFSLVLLQTAGIG [P0A8H3],1.91,1.38,1.59 ± 0.2,2.14 ± 0.3,1.65 ± 0.083,0.41,,1.7,2.45,,0.83,
MSVPVQHPMYIDGQFVTWRGDAWIDVVNPATEAVISRIPDGQAEDARKAIDAAERAQPEWEALPAIERASWLRKISAGIRERASEISALIVEEGGKIQQLAEVEVAFTADYIDYMAEWARRYEGEIIQSDRPGENILLFKRALGVTTGILPWNFPFFLIARKMAPALLTGNTIVIKPSEFTPNNAIAFAKIVDEIGLPRGVFNLVLGRGETVGQELAGNPKVAMVSMTGSVSAGEKIMATAAKNITKVCLELGGKAPAIVMDDADLELAVKAIVDSRVINSGQVCNCAERVYVQKGIYDQFVNRLGEAMQAVQFGNPAERNDIAMGPLINAAALERVEQKVARAVEEGARVAFGGKAVEGKGYYYPPTLLLDVRQEMSIMHEETFGPVLPVVAFDTLEDAISMANDSDYGLTSSIYTQNLNVAMKAIKGLKFGETYINRENFEAMQGFHAGWRKSGIGGADGKHGLHEYLQTQVVYLQS,4.75 ± 0.26,4.93 ± 1,3.81 ± 0.14,4.56 ± 0.062,4.55 ± 0.52,3.19 ± 0.26,10.24 ± 0.092,4.82 ± 1.6,5.01 ± 1.9,5.871 ± 0.049,5.86 ± 0.33,11.3 ± 0.13
MSVRLVLAKGREKSLLRRHPWVFSGAVARMEGKASLGETIDIVDHQGKWLARGAYSPASQIRARVWTFDPSESIDIAFFSRRLQQAQKWRDWLAQKDGLDSYRLIAGESDGLPGITIDRFGNFLVLQLLSAGAEYQRAALISALQTLYPECSIYDRSDVAVRKKEGMELTQGPVTGELPPALLPIEEHGMKLLVDIQHGHKTGYYLDQRDSRLATRRYVENKRVLNCFSYTGGFAVSALMGGCSQVVSVDTSQEALDIARQNVELNKLDLSKAEFVRDDVFKLLRTYRDRGEKFDVIVMDPPKFVENKSQLMGACRGYKDINMLAIQLLNEGGILLTFSCSGLMTSDLFQKIIADAAIDAGRDVQFIEQFRQAADHPVIATYPEGLYLKGFACRVM,5.39 ± 0.22,5.51 ± 0.19,5.55 ± 0.16,6.51 ± 0.56,5.25 ± 0.27,3.02 ± 0.1,11.32 ± 0.082,6.03 ± 0.6,11.3 ± 1.5,6.28 ± 1.2,6.57 ± 0.19,13.1 ± 1.7
MSVSAFNRRWAAVILEALTRHGVRHICIAPGSRSTPLTLAAAENSAFIHHTHFDERGLGHLALGLAKVSKQPVAVIVTSGTAVANLYPALIEAGLTGEKLILLTADRPPELIDCGANQAIRQPGMFASHPTHSISLPRPTQDIPARWLVSTIDHALGTLHAGGVHINCPFAEPLYGEMDDTGLSWQQRLGDWWQDDKPWLREAPRLESEKQRDWFFWRQKRGVVVAGRMSAEEGKKVALWAQTLGWPLIGDVLSQTGQPLPCADLWLGNAKATSELQQAQIVVQLGSSLTGKRLLQWQASCEPEEYWIVDDIEGRLDPAHHRGRRLIANIADWLELHPAEKRQPWCVEIPRLAEQAMQAVIARRDAFGEAQLAHRICDYLPEQGQLFVGNSLVVRLIDALSQLPAGYPVYSNRGASGIDGLLSTAAGVQRASGKPTLAIVGDLSALYDLNALALLRQVSAPLVLIVVNNNGGQIFSLLPTPQSERERFYLMPQNVHFEHAAAMFELKYHRPQNWQELETAFADAWRTPTTTVIEMVVNDTDGAQTLQQLLAQVSHL,6.1 ± 0.64,5.37 ± 0.1,5.38 ± 0.24,,5.01 ± 0.12,3.27 ± 0.59,12.2 ± 1.8,5.89 ± 0.76,12.3 ± 1.8,6.81 ± 0.65,6.66 ± 0.06,
